Source: US7667021 (dated 2010)

Experiments:
IGFR1 [1] = target: IGFR1 (human); assay: SPR, 25C
IGFR1 [2] = target: IGFR1 (human); assay: SPR, 37C

Chain of IGFR1 (human) (B1B5Y2 whole entry): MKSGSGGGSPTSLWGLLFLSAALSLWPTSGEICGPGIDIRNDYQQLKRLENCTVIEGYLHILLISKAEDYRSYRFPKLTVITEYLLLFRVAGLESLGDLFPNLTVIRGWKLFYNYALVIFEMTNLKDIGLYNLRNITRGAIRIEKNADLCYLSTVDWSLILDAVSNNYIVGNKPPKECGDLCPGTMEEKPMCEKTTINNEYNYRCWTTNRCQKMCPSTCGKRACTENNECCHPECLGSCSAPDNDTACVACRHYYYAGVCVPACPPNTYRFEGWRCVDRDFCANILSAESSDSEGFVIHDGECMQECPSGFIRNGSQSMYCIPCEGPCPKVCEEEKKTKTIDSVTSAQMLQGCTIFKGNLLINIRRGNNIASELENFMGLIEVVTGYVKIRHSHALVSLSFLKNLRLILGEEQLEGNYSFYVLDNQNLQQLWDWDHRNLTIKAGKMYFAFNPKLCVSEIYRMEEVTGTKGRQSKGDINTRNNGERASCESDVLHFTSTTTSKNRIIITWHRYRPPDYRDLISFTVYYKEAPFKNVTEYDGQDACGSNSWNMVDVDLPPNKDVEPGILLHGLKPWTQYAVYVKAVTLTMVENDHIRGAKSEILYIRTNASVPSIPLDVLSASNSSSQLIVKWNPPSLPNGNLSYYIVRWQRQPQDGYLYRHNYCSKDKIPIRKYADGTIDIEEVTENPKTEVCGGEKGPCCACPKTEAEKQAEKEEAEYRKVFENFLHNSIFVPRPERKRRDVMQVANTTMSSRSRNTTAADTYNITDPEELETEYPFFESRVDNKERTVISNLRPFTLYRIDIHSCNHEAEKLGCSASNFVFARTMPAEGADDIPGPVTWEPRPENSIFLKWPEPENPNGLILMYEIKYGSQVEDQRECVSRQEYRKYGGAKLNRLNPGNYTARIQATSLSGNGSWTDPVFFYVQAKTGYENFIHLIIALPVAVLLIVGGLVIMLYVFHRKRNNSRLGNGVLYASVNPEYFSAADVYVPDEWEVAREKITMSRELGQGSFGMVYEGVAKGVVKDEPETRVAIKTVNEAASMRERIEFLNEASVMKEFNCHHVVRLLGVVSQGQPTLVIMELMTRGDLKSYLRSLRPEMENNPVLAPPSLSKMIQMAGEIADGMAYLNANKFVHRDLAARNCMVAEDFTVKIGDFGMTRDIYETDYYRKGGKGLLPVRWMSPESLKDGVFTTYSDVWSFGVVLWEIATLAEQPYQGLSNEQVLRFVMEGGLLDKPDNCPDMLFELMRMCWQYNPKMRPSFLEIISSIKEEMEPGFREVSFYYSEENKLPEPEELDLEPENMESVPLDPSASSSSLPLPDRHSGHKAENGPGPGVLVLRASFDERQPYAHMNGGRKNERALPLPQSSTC

B1: 1H3 (antibody, V domains shown)
VH: EVQLVQSGGGLVLPGGSLRLSCAGSGFTFSNYAMHWIRQAPGKGLEWVSAIGAGGDTYYADSVKGRFTISRDNAKDSLYLQMNSLRAEDMAVYYCARGRHRNWYYYNKDYWGQGTLVTVSS
VL: EIVLTQSPATLSLSPGERATLSCRASQSVSSFLAWYQQKPGQAPRLLIYDASNRAPGIPARFSGSGSGTDFTLTISSLEPEDFAVYYCQQRSNWPRWTFGQGTKVEIKR
Kd (IGFR1 [1]): 0.86 nM

B2: 19D12 (antibody, V domains shown)
VH: EVQLVQSGGGLVHPGGSLRLSCAASGFTFSSFAMHWVRQAPGKGLEWISVIDTRGATYYADSVKGRFTISRDNAKNSLYLQMNSLRAEDMAVYYCARLGNFYYGMDVWGQGTTVTVSS
VL: EIVLTQVPDFQSVTPKEKVTITCRASQSIGSSLHWYQQKPDQSPKLLIKYASQSLSGVPSRFSGSGSGTDFTLTINSLEAEDAAAYYCHQSSRLPHTFGGGTKVEIKR
Kd (IGFR1 [1]): 0.0592 nM | Kd (IGFR1 [2]): 0.0722 nM

B3: 15H12 (antibody, V domains shown)
VH: B2 VH
VL: B2 VL
Kd (IGFR1 [1]): 0.0448 nM | Kd (IGFR1 [2]): 0.0557 nM
